Assay results taken from the Human Domainome abundance scans (Beltran et al. 2025).
± gives the uncertainty stated by the source.

B1: Double-stranded RNA-specific adenosine deaminase, residues 296 to 358; numbered along this chain, P55265 (parent)
chain: MAEIKEKICDYLFNVSDSSALNLAKNIGLTKARDINAVLIDMERQGDVYRQGTTPPIWHLTDK
B2: Gamma-crystallin D, residues 90 to 170; numbered along this chain, P07320 (parent)
chain: IRLYEREDYRGQMIEFTEDCSCLQDRFRFNEIHSLNVLEGSWVLYELSNYRGRQYLLMPGDYRRYQDWGATNARVGSLRRV

Variants of: B1
Experiment: abundance fitness (aPCA) (normalised: wild type 0, dead -1); higher = more abundant; growth selection in yeast, the domain comes from the species named
Conditions: Homo sapiens

Point of comparison: M1E, abundance fitness 0.235 ± 0.13. Against it:
- I8K — lower, -0.568 ± 0.12
- I8E — lower, -0.374 ± 0.074
- I8N — lower, -0.543 ± 0.4
- I8R — lower, -0.374 ± 0.11
- I8T — lower, -0.713 ± 0.14
- I8V — lower, -0.649 ± 0.29
- I8F — lower, -0.506 ± 0.19
- I8P — lower, -0.455 ± 0.18
- I8S — lower, -0.304 ± 0.15
- I8D — within error, 0.302 ± 0.3
- I8W — lower, -1.3 ± 0.38
- I8Q — lower, -0.137 ± 0.11
- I8L — lower, -0.903 ± 0.17
- I8G — lower, -0.471 ± 0.096
- I8A — lower, -0.564 ± 0.13
- I8H — lower, -0.766 ± 0.2
- E6N — lower, -0.428 ± 0.12
- E6L — lower, -0.57 ± 0.068
- E6R — lower, -0.338 ± 0.056
- E6Q — lower, -0.03 ± 0.087
- E6K — within error, 0.056 ± 0.23
- E6H — lower, -0.557 ± 0.1
- E6V — lower, -0.589 ± 0.069
- E6F — lower, -0.839 ± 0.27
- E6D — lower, -0.517 ± 0.15
- E6S — lower, -0.39 ± 0.062
- E6A — lower, -0.148 ± 0.055
- E6C — lower, -0.654 ± 0.21
- E6M — lower, -0.25 ± 0.1
- E6Y — lower, -0.832 ± 0.26
- E6I — lower, -0.886 ± 0.15
- E6W — lower, -0.793 ± 0.088
- E6G — lower, -0.246 ± 0.056
- E6P — lower, -0.831 ± 0.13
- E3G — lower, -0.18 ± 0.056
- E3Y — lower, -0.298 ± 0.059
- E3K — lower, -0.21 ± 0.061
- E3Q — lower, -0.368 ± 0.11
- E3T — lower, -0.159 ± 0.059
- E3R — lower, -0.334 ± 0.05
- E3S — lower, -0.213 ± 0.045
- E3M — lower, -0.621 ± 0.15
- E3P — lower, -0.383 ± 0.077
- E3A — lower, -0.369 ± 0.074
- E3F — lower, -0.561 ± 0.11
- E3H — lower, -0.285 ± 0.075
- E3L — lower, -0.552 ± 0.055
- E3I — lower, -0.457 ± 0.098
- E3W — lower, -0.147 ± 0.054
- E3V — lower, -0.471 ± 0.081
- E3N — lower, -0.196 ± 0.078
- I4V — lower, -0.293 ± 0.042
- I4Q — lower, -0.327 ± 0.068
- I4P — lower, -0.551 ± 0.061
- I4G — lower, -0.435 ± 0.043
- I4E — lower, -0.287 ± 0.075
- I4W — lower, -0.666 ± 0.07
- I4N — lower, -0.327 ± 0.059
- I4D — lower, -0.121 ± 0.058
- I4F — lower, -0.649 ± 0.082
- I4M — lower, -0.217 ± 0.056
- I4T — lower, -0.24 ± 0.054
- I4R — lower, -0.387 ± 0.043
- I4H — lower, -0.227 ± 0.064
- I4C — lower, -0.995 ± 0.092
- I4S — lower, -0.311 ± 0.04
- I4L — within error, 0.146 ± 0.03
- I4K — lower, -0.2 ± 0.084
- I4A — lower, -0.37 ± 0.048
- I4Y — lower, -0.398 ± 0.063
- M1C — lower, -0.545 ± 0.3
- M1K — within error, 0.181 ± 0.073
- M1R — within error, 0.151 ± 0.059
- M1W — lower, 0.017 ± 0.06
- M1A — lower, -0.418 ± 0.13
- M1F — within error, 0.108 ± 0.2
- M1L — lower, -0.29 ± 0.096
- M1D — lower, -0.359 ± 0.11
- M1Q — within error, 0.435 ± 0.32
- M1Y — lower, -0.327 ± 0.26
- M1G — lower, -0.263 ± 0.084
- M1S — lower, -0.034 ± 0.066
- D10F — lower, -0.653 ± 0.17
- D10A — lower, -0.021 ± 0.041
- D10E — lower, 0 ± 0.075
- A2F — lower, -0.471 ± 0.21
- A2V — lower, -0.247 ± 0.059
- A2E — within error, 0.3 ± 0.057
- A2R — lower, 0.004 ± 0.048
- A2M — within error, 0.045 ± 0.071
- A2L — lower, -0.096 ± 0.06
- A2N — within error, 0.051 ± 0.078
- A2D — within error, 0.207 ± 0.099
- A2Q — within error, 0.023 ± 0.092
- A2T — lower, -0.152 ± 0.086
- A2K — within error, 0.168 ± 0.075
- A2S — lower, -0.024 ± 0.063
- A2W — lower, -0.18 ± 0.064
- A2C — lower, -0.393 ± 0.086
- A2H — lower, -0.151 ± 0.18
- A2P — lower, -0.335 ± 0.078
- K7F — lower, -0.543 ± 0.088
- K7Y — lower, -0.796 ± 0.085
- K7S — lower, -0.467 ± 0.067
- K7Q — lower, -0.938 ± 0.39
- K7M — lower, -0.055 ± 0.15
- K7L — lower, -0.402 ± 0.067
- K7I — lower, -0.779 ± 0.11
- K7W — lower, -0.471 ± 0.27
- K7P — lower, -0.906 ± 0.27
- K7R — lower, -0.266 ± 0.062
- K7A — lower, -0.348 ± 0.066
- K7D — lower, -0.533 ± 0.14
- K7N — lower, -0.534 ± 0.08
- K7C — lower, -1.01 ± 0.12
- K7V — lower, -0.641 ± 0.092
- K7G — lower, -0.775 ± 0.086
- C9G — lower, -0.389 ± 0.036
- C9I — within error, 0.338 ± 0.085
- C9Q — lower, -0.105 ± 0.075
- C9T — within error, 0.119 ± 0.054
- C9Y — within error, 0.09 ± 0.077
- C9N — within error, 0.077 ± 0.12
- C9E — lower, 0.002 ± 0.053
- C9K — within error, 0.278 ± 0.052
- C9D — lower, -0.678 ± 0.14
- C9R — within error, 0.233 ± 0.037
- C9M — lower, 0.042 ± 0.062
- C9F — within error, 0.086 ± 0.11
- C9A — lower, -0.143 ± 0.05
- C9W — lower, -0.018 ± 0.055
- C9H — lower, -0.125 ± 0.12
- C9L — within error, 0.168 ± 0.046
- C9V — within error, 0.217 ± 0.052
- K5W — lower, -0.465 ± 0.077
- K5F — lower, -0.449 ± 0.066
- K5Y — lower, -0.79 ± 0.11
- K5P — lower, -0.486 ± 0.069
- K5C — lower, -0.924 ± 0.15
- K5M — lower, -0.574 ± 0.082
- K5I — lower, -0.512 ± 0.081
- K5T — lower, -0.601 ± 0.077
- K5Q — lower, -0.28 ± 0.065
- K5V — lower, -0.652 ± 0.073
- K5G — lower, -0.616 ± 0.084
- K5A — lower, -0.428 ± 0.058
- K5H — lower, -0.68 ± 0.1
- K5R — lower, -0.118 ± 0.052
- K5N — lower, -0.555 ± 0.097
- K5E — lower, -0.666 ± 0.22

Variants of: B2
Experiment: as above
Conditions: Homo sapiens

Point of comparison: R79W, abundance fitness -0.36 ± 0.11. Against it:
- V81I — higher, -0.054 ± 0.15
- V81L — within error, 0.081 ± 0.37
- V81A — within error, -0.093 ± 0.43
- R79G — higher, -0.032 ± 0.1
- R79M — higher, 0.086 ± 0.22
- R79Q — higher, 0.049 ± 0.13
- R79F — within error, -0.214 ± 0.12
- R79K — higher, -0.048 ± 0.14
- R79P — lower, -0.93 ± 0.17
- R79I — within error, -0.175 ± 0.19
- R79T — higher, -0.117 ± 0.11
- R79Y — within error, -0.153 ± 0.19
- R79N — within error, -0.316 ± 0.3
- R79S — higher, 0.068 ± 0.093
- R79E — higher, 0.113 ± 0.16
